Source: US20100291540A1

Tests used:
[1] = biological target: starch binding domain derived from Rhizopus oryzae glucoamylase (RoSBD) (Rhizopus oryzae) (UniProt P07683); assay: competition sandwich ELISA, 250 nM gp140 premixed with panel, RoSBD-coated plate; competes with the panel's HIV antigen
[2] = biological target: starch binding domain derived from Aspergillus niger glucoamylase (AnSBD) (Aspergillus niger) (UniProt P69328); assay: competition sandwich ELISA, 250 nM gp140 premixed with panel, AnSBD-coated plate; competes with the panel's HIV antigen

HIV1 gp140 antigen
inhibition rate [1]: 42.9%
inhibition rate [2]: 40.1%
